± gives the standard error. Variants at the floor of the assay were thinned out.
B1: glmS ribozyme (parent)
chain: AUAAAAGCGCCAGAACUACAGAAAUGUAGUUGACGAGGAGGAGGUUUAUCGAAUUUUCGGCGGAUGCCUCCAAA

How the values were obtained:
Settings in all cases: with glucosamine-6-phosphate
glucosamine-6-phosphate [1] = variants of: B1; test: self-cleavage kobs at 40 uM GlcN6P; higher = faster cleavage; RNA array
Procedure, shortened: (§1)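 The measurements used barcoded ribozyme variants on sequenced MiSeq chips, transcribed in situ by E. coli RNA polymerase and tracked at 37 °C with a hybridised Cy3 probe. Glucosamine-6-phosphate, 40 μM to 10 mM in HEPES/KCl/Mg(OAc)2 buffer, was flowed in while tiles were imaged over ~14 h. Baseline-normalised signals, also normalised to non-cleaving reference variants, gave per-tile medians that were fit to one- or two-exponential decays for kobs. kcat and KM resulted from weighted Michaelis–Menten fits across concentrations.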

glucosamine-6-phosphate [2] = variants of: B1; test: self-cleavage kobs at 160 uM GlcN6P; higher = faster cleavage; RNA array
Procedure, shortened: as §1

glucosamine-6-phosphate [3] = variants of: B1; test: self-cleavage kobs at 640 uM GlcN6P; higher = faster cleavage; RNA array
Procedure, shortened: as §1

glucosamine-6-phosphate [4] = variants of: B1; test: self-cleavage kobs at 2500 uM GlcN6P; higher = faster cleavage; RNA array
Procedure, shortened: as §1

glucosamine-6-phosphate [5] = variants of: B1; test: self-cleavage kobs at 10000 uM GlcN6P; higher = faster cleavage; RNA array
Procedure, shortened: as §1

Row | Variant | self-cleavage kobs at 40 uM GlcN6P (glucosamine-6-phosphate [1]) | self-cleavage kobs at 160 uM GlcN6P (glucosamine-6-phosphate [2]) | self-cleavage kobs at 640 uM GlcN6P (glucosamine-6-phosphate [3]) | self-cleavage kobs at 2500 uM GlcN6P (glucosamine-6-phosphate [4]) | self-cleavage kobs at 10000 uM GlcN6P (glucosamine-6-phosphate [5])
1 | A15G G63C | < 1e-05 s⁻¹ | < 1e-05 s⁻¹ | < 1e-05 s⁻¹ | < 1e-05 s⁻¹ | < 1e-05 s⁻¹
2 | G9U U69C | < 1e-05 s⁻¹ |  |  | < 1e-05 s⁻¹ | 
3 | G7A A39C G51U | < 1e-05 s⁻¹ | < 1e-05 s⁻¹ |  | < 1e-05 s⁻¹ | 
4 | G13U G43A C50A C61U C68U | < 1e-05 s⁻¹ |  |  |  | 
5 | C58G C61U | < 1e-05 s⁻¹ |  |  |  | 
6 | C10A G43C | < 1e-05 s⁻¹ | < 1e-05 s⁻¹ | < 1e-05 s⁻¹ |  | < 1e-05 s⁻¹
7 | U47C G63C | < 1e-05 s⁻¹ |  | < 1e-05 s⁻¹ | < 1e-05 s⁻¹ | < 1e-05 s⁻¹
8 | G13U G41C U46G C50G | < 1e-05 s⁻¹ |  |  |  | 
9 | C10U A33C U47G G51U C58G A64U C70A | 7.66e-05 ± 2.4e-05 s⁻¹ |  |  |  | 0.000101 ± 2.1e-05 s⁻¹
10 | C10U C11U U56G G62U | < 1e-05 s⁻¹ |  |  |  | < 1e-05 s⁻¹
11 | C8A U55G A64C U69G | 0.000295 ± 0.00013 s⁻¹ |  |  |  | 5.15e-05 ± 2.4e-05 s⁻¹
12 | G7U A42G U49G C70G | < 1e-05 s⁻¹ |  |  |  | 
13 | A6U G7U C10A G29A C34A C67G C68A C71U | 9.49e-05 ± 2.1e-05 s⁻¹ |  | 6.07e-05 ± 1.4e-05 s⁻¹ |  | 3.01e-05 ± 1.4e-05 s⁻¹
14 | C8G G13U G51C A64G | < 1e-05 s⁻¹ |  |  |  | 
15 | G13A G63U | < 1e-05 s⁻¹ | < 1e-05 s⁻¹ | < 1e-05 s⁻¹ | < 1e-05 s⁻¹ | < 1e-05 s⁻¹
16 | C10G A42G | < 1e-05 s⁻¹ | < 1e-05 s⁻¹ | < 1e-05 s⁻¹ |  | 
17 | A14G U55C A64C | < 1e-05 s⁻¹ |  |  |  | 
18 | A15G U55A | 0.000962 ± 0.00014 s⁻¹ | 0.00144 ± 0.00025 s⁻¹ | 0.0107 ± 0.0017 s⁻¹ |  | 0.0387 ± 0.0094 s⁻¹
19 | G13C G62A | < 1e-05 s⁻¹ |  |  | < 1e-05 s⁻¹ | 
20 | G44U C50U C67G | < 1e-05 s⁻¹ |  |  |  | 
21 | A39G U54G | 0.00177 ± 0.00036 s⁻¹ | 0.00227 ± 0.00056 s⁻¹ | 0.00627 ± 0.0015 s⁻¹ | 0.0305 ± 0.013 s⁻¹ | 
22 | A36C U47C | < 1e-05 s⁻¹ |  | < 1e-05 s⁻¹ | < 1e-05 s⁻¹ | 
23 | G41C U49G A53G | < 1e-05 s⁻¹ |  |  |  | 
24 | G44U G60C | < 1e-05 s⁻¹ | < 1e-05 s⁻¹ | < 1e-05 s⁻¹ | < 1e-05 s⁻¹ | < 1e-05 s⁻¹
25 | A12U G29A G41A C50A C67A | < 1e-05 s⁻¹ |  |  |  | 
26 | A42G G44A A48G U57C C67A | < 1e-05 s⁻¹ |  |  |  | 

Reference: the supplement of paper PMC7125110
